From patent US20240301064A1 (published 2024)
Residue numbers refer to the chain shown, from its start. One block for each binder: values may come before it.

Assays:
human PD-1 [1] = target: T1, human PD-1 (human, UniProt Q15116 25-167, limits assumed); test: BLI, antibody on AHC tip, soluble PD-1
T1 construct: also called huPD-1

human PD-1 [2] = target: T1, human PD-1; test: ELISA on coated huPD-1
Description: Plates were coated with 2 μg/mL huPD-1 in 1×PBS at 4° C. overnight. Plates were blocked with 1×PBS with 1% BSA. Antibodies were tested in duplicate for binding with a 3-fold, dilution series from 300 nM to 0.4 nM. Signal is background subtracted for coated wells with 2° antibody only. […] PD-1 agonists comprising germline mutations bind to human PD-1.

T1 sequence (Q15116 25-167 limits assumed): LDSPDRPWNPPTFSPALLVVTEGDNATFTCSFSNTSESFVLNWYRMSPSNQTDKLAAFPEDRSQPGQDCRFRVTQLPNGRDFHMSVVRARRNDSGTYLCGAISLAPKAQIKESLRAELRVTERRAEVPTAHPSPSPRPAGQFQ

B1: PMAB199 (bispecific antibody, human IgG1, kappa)
heavy: EVQLLESGGGLVQPGGSLRLSCAASGFTFSSYDMSWVRQAPGKGLEWVSGITISGGSTYYADSVKGRFTISRDNSKNTLYLQMNSLRAEDTAVYYCARGRGGSGWLDYWGQGTTVTVSSASTKGPSVFPLAPSSKSTSGGTAALGCLVKDYFPEPVTVSWNSGALTSGVHTFPAVLQSSGLYSLSSVVTVPSSSLGTQTYICNVNHKPSNTKVDKKVEPKSCDKTHTCPPCPAPEAAGAPSVFLFPPKPKDTLMISRTPEVTCVVVDVSHEDPEVKFNWYVDGVEVHNAKTKPREEQYNSTYRVVSVLTVLHQDWLNGKEYKCKVSNKALPAPIEKTISKAKGQPREPQVYTLPPSREEMTKNQVSLTCLVKGFYPSDIAVEWESNGQPENNYKTTPPVLDSDGSFFLYSKLTVDKSRWQQGNVFSCSVMHEALHNHYTQKSLSLSPGGGGGSGGGGSGGGGSEVQLLESGGGLVQPGGSLRLSCAASGFTFSSYWMHWVRQAPGKGLEWVSYISGSGGYTNYADSVKGRFTISRDNSKNTLYLQMNSLRAEDTAVYYCARDRPYGYYMDVWGKGTTVTVSSGGGGSGGGGSGGGGSGGGGSDIQMTQSPSSLSASVGDRVTITCRASQSISSSLAWYQQKPGKAPKLLIYAASSLQSGVPSRFSGSGSGTDFTLTISSLQPEDFATYYCQQYKSYPVTFGQGTKVEIK
light: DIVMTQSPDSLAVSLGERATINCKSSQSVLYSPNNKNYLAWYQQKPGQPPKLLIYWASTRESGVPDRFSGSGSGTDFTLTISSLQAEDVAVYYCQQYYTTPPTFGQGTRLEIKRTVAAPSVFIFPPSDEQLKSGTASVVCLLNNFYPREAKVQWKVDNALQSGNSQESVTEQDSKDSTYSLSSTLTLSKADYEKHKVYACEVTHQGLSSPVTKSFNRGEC
Kd (human PD-1 [1]): 98.6 nM

B18: PMAB217 (bispecific antibody, human IgG1, kappa)
heavy: QVQLVQSGAEVKKPGASVKVSCKASGYTFSDHYMHWVRQAPGQGLEWMGTIAPSGGRTSYAQKFQGRVTMTRDTSTSTVYMELSSLRSEDTAVYYCAADNGHASGWLYYYGMDVWGQGTTVTVSSASTKGPSVFPLAPSSKSTSGGTAALGCLVKDYFPEPVTVSWNSGALTSGVHTFPAVLQSSGLYSLSSVVTVPSSSLGTQTYICNVNHKPSNTKVDKKVEPKSCDKTHTCPPCPAPEAAGAPSVFLFPPKPKDTLMISRTPEVTCVVVDVSHEDPEVKFNWYVDGVEVHNAKTKPREEQYNSTYRVVSVLTVLHQDWLNGKEYKCKVSNKALPAPIEKTISKAKGQPREPQVYTLPPSREEMTKNQVSLTCLVKGFYPSDIAVEWESNGQPENNYKTTPPVLDSDGSFFLYSKLTVDKSRWQQGNVFSCSVMHEALHNHYTQKSLSLSPGGGGGSGGGGSGGGGSEVQLLESGGGLVQPGGSLRLSCAASGFTFSDFWMHWVRQAPGKGLEWISYISGDSGYTNYADSVKGRFTISRDNSKNTLYLQMNSLRAEDTAVYYCARDRPYYYYMDVWGKGTTVTVSSGGGGSGGGGSGGGGSGGGGSDIQMTQSPSSLSASVGDRVTITCRASQSVSRSLAWYQQKPGKAPKLLIYAASSLQSGVPSRFSGSGSGTDFTLTISSLQPEDFATYYCQQYKSYPVTFGQGTKVEIK
light: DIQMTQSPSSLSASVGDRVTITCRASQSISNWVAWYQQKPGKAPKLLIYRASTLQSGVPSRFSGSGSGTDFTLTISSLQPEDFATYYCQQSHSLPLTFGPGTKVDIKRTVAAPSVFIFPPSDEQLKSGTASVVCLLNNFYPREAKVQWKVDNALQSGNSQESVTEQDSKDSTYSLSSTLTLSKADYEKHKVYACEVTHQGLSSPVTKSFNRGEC
Kd (human PD-1 [1]): 424 nM

B19: PMAB210 (bispecific antibody, human IgG1, kappa)
heavy: B18 heavy
light: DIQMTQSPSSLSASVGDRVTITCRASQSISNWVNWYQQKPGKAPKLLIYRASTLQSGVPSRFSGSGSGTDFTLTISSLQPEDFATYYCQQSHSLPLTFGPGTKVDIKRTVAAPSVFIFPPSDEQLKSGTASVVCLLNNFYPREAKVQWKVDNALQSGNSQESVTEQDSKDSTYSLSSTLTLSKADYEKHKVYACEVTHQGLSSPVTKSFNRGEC
Kd (human PD-1 [1]): 3130 nM

B20: PMAB202 (bispecific antibody, human IgG1, kappa)
heavy: B18 heavy with D31S
light: not shown
Kd (human PD-1 [1]): 755 nM

B21: PMAB208 (bispecific antibody, human IgG1, kappa)
heavy: B18 heavy
light: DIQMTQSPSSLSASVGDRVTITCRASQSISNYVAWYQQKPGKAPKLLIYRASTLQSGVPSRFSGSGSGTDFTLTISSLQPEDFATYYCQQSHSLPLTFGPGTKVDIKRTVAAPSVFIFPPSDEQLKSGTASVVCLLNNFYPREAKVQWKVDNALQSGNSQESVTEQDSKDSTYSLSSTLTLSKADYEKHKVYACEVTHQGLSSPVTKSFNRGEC
Kd (human PD-1 [1]): 553 nM

B22: PMAB211 (bispecific antibody, human IgG1, kappa)
heavy: B18 heavy
light: not shown
Kd (human PD-1 [1]): 1300 nM

B23: PMAB205 (bispecific antibody, human IgG1, kappa)
heavy: B18 heavy with R57S
light: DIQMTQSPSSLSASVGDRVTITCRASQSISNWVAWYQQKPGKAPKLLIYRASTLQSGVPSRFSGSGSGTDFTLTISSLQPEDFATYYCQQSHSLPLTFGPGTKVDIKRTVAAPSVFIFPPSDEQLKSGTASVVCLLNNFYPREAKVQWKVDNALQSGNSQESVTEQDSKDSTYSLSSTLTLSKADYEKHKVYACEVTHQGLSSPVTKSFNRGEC
Kd (human PD-1 [1]): 795 nM

B24: PMAB201 (bispecific antibody, human IgG1, kappa)
heavy: B18 heavy with S30T
light: not shown
Kd (human PD-1 [1]): 341 nM

B25: PMAB207 (bispecific antibody, human IgG1, kappa)
heavy: B18 heavy
light: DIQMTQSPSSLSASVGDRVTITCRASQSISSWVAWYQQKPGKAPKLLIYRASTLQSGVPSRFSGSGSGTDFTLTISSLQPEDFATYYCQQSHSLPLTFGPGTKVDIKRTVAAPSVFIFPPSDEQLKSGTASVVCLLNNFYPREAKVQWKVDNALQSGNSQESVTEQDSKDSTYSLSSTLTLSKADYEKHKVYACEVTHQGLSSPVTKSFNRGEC
Kd (human PD-1 [1]): 445 nM

B27: PMAB204 (bispecific antibody, human IgG1, kappa)
heavy: B18 heavy with T50I
light: not shown
Kd (human PD-1 [1]): 1710 nM

B28: PMAB209 (bispecific antibody, human IgG1, kappa)
heavy: B18 heavy
light: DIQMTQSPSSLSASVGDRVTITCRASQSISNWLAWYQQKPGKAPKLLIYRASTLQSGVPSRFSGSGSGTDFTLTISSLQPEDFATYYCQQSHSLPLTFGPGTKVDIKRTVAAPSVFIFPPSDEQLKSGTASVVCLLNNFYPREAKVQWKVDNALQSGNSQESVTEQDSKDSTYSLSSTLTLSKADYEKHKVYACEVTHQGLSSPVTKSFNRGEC
Kd (human PD-1 [1]): 687 nM

B29: PMAB212 (bispecific antibody, human IgG1, kappa)
heavy: B18 heavy
light: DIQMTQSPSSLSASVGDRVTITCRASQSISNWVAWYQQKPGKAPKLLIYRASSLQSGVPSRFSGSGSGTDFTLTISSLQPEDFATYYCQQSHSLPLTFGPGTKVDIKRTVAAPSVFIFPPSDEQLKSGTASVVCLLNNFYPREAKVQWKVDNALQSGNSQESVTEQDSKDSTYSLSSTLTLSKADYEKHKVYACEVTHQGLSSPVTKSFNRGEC
Kd (human PD-1 [1]): 1090 nM

B31: PMAB119 (bispecific antibody, human IgG1, kappa)
heavy: QVQLVQSGAEVKKPGASVKVSCKASGYSFTTYYMHWVRQAPGQGLEWMGIIAPSGGSTSYAQKFQGRVTMTRDTSTSTVYMELSSLRSEDTAVYYCASGWVYWGQGTLVTVSSASTKGPSVFPLAPSSKSTSGGTAALGCLVKDYFPEPVTVSWNSGALTSGVHTFPAVLQSSGLYSLSSVVTVPSSSLGTQTYICNVNHKPSNTKVDKKVEPKSCDKTHTCPPCPAPEAAGAPSVFLFPPKPKDTLMISRTPEVTCVVVDVSHEDPEVKFNWYVDGVEVHNAKTKPREEQYNSTYRVVSVLTVLHQDWLNGKEYKCKVSNKALPAPIEKTISKAKGQPREPQVYTLPPSREEMTKNQVSLTCLVKGFYPSDIAVEWESNGQPENNYKTTPPVLDSDGSFFLYSKLTVDKSRWQQGNVFSCSVMHEALHNHYTQKSLSLSPGGGGGSGGGGSGGGGSEVQLLESGGGLVQPGGSLRLSCAASGFTFSDFWMHWVRQAPGKGLEWISYISGDSGYTNYADSVKGRFTISRDNSKNTLYLQMNSLRAEDTAVYYCARDRPYYYYMDVWGKGTTVTVSSGGGGSGGGGSGGGGSGGGGSDIQMTQSPSSLSASVGDRVTITCRASQSVSRSLAWYQQKPGKAPKLLIYAASSLQSGVPSRFSGSGSGTDFTLTISSLQPEDFATYYCQQYKSYPVTFGQGTKVEIK
light: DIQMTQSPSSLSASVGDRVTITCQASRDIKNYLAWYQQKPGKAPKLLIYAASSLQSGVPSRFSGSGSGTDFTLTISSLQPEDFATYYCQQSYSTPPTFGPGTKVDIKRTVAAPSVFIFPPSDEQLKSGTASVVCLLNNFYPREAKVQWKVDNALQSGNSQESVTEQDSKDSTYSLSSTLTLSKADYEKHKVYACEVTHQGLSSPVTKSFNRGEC
Kd (human PD-1 [1]): 96.9 nM

B32: PMAB114 (bispecific antibody, human IgG1, kappa)
heavy: B31 heavy
light: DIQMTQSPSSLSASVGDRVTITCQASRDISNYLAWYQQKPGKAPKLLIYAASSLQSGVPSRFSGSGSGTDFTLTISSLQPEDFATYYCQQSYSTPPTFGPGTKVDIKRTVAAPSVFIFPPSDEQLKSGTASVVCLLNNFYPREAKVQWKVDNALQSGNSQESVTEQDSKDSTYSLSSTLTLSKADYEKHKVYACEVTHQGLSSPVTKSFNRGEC
Kd (human PD-1 [1]): 113 nM

B33: PMAB108 (bispecific antibody, human IgG1, kappa)
heavy: B31 heavy with S28T
light: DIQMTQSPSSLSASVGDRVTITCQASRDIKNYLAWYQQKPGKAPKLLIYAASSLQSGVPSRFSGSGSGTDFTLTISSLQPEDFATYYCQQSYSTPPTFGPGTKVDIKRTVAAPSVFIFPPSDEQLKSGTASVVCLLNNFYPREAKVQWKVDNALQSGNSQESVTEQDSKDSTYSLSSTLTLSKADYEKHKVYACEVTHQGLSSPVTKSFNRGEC
Kd (human PD-1 [1]): 55.3 nM

B34: PMAB115 (bispecific antibody, human IgG1, kappa)
heavy: B31 heavy
light: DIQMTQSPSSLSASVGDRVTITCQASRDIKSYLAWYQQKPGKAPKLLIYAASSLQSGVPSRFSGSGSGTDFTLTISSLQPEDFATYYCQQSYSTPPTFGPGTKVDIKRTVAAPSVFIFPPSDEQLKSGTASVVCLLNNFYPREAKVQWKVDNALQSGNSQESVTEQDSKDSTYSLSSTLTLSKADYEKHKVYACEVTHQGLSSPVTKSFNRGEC
Kd (human PD-1 [1]): 229 nM

B35: PMAB109 (bispecific antibody, human IgG1, kappa)
heavy: B31 heavy with T31S
light: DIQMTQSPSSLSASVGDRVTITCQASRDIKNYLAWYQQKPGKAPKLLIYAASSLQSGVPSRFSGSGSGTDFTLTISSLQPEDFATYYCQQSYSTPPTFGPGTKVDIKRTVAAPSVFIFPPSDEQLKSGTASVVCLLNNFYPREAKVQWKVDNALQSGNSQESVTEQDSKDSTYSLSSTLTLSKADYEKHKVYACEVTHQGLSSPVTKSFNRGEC
Kd (human PD-1 [1]): 85.9 nM

B36: PMAB113 (bispecific antibody, human IgG1, kappa)
heavy: B31 heavy
light: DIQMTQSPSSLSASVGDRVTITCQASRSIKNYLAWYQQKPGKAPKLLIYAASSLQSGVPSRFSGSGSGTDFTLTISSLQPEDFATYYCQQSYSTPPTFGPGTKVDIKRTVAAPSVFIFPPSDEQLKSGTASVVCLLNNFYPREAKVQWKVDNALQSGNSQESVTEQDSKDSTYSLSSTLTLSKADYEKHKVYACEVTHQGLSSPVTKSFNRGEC
Kd (human PD-1 [1]): 91.7 nM

B37: PMAB111 (bispecific antibody, human IgG1, kappa)
heavy: B31 heavy
light: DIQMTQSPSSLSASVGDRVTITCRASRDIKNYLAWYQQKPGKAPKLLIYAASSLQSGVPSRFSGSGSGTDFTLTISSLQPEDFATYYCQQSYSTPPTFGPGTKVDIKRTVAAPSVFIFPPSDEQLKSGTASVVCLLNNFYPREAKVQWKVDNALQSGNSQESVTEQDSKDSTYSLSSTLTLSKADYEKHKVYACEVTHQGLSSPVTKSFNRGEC
Kd (human PD-1 [1]): 67.6 nM

B38: PMAB112 (bispecific antibody, human IgG1, kappa)
heavy: B31 heavy
light: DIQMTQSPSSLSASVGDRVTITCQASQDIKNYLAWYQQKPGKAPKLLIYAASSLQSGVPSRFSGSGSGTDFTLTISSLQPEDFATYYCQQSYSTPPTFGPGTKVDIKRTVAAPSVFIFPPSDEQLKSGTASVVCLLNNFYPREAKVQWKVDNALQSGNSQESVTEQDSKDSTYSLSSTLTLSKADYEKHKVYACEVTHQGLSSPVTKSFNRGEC
Kd (human PD-1 [1]): 76.2 nM

The remaining lines, values ahead:

IC50 (human PD-1 [2]): 85.9 nM
B2: PMAB233 (antibody, human IgG1, kappa, V domains shown)
VH: QVQLVQSGAEVKKPGASVKVSCKASGYTFTTYYMHWVRQAPGQGLEWMGIIQPSGGSTSYAQKFQGRVTMTRDTSTSTVYMELSSLRSEDTAVYYCASGWVYWGQGTLVTVSS
VL: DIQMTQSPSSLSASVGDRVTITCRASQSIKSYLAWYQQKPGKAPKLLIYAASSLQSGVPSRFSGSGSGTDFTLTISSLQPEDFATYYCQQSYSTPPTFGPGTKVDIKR

IC50 (human PD-1 [2]): 39 nM
B3: PMAB240 (antibody, human IgG1, kappa, V domains shown)
VH: B2 VH with T28S, T31S
VL: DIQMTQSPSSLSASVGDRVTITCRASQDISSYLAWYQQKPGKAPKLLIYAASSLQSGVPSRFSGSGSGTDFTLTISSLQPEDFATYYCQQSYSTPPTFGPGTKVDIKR

IC50 (human PD-1 [2]): 23.2 nM
B4: PMAB235 (antibody, human IgG1, kappa, V domains shown)
VH: B2 VH
VL: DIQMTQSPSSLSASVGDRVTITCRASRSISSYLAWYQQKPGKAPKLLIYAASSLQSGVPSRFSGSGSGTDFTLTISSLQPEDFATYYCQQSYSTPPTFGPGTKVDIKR

Kd (human PD-1 [1]): 892 nM
B5: PMAB278 (antibody, human IgG1, kappa, V domains shown)
VH: B2 VH with Q1E, T28S, T31S, Q52N
VL: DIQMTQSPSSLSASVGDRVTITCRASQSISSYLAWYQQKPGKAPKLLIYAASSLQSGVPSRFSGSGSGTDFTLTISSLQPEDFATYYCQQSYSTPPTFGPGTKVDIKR

Kd (human PD-1 [1]): 849 nM
B6: PMAB275 (antibody, human IgG1, kappa, V domains shown)
VH: B2 VH with Q1E, T28S, T31S, Q52N
VL: DIQMTQSPSSLSASVGDRVTITCQASRDIKNYLAWYQQKPGKAPKLLIYAASSLQSGVPSRFSGSGSGTDFTLTISSLQPEDFATYYCQQSYSTPPTFGPGTKVDIKR

IC50 (human PD-1 [2]): 258 nM
B7: PMAB244 (antibody, human IgG1, kappa, V domains shown)
VH: B2 VH with T28S
VL: B6 VL

IC50 (human PD-1 [2]): 44.7 nM
B8: PMAB239 (antibody, human IgG1, kappa, V domains shown)
VH: B2 VH with T28S, T31S
VL: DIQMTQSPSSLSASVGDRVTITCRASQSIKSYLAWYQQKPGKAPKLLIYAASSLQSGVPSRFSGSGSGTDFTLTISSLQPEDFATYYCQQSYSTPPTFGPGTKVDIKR

Kd (human PD-1 [1]): 896 nM
B9: PMAB277 (antibody, human IgG1, kappa, V domains shown)
VH: B2 VH with Q1E, Q52N
VL: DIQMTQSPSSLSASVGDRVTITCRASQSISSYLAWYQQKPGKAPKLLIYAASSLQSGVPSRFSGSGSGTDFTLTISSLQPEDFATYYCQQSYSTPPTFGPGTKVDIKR

IC50 (human PD-1 [2]): 36.4 nM
B10: PMAB238 (antibody, human IgG1, kappa, V domains shown)
VH: B2 VH with T28S, T31S
VL: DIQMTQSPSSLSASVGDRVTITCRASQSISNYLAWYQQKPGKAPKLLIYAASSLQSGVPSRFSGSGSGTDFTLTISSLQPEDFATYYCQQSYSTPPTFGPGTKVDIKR

IC50 (human PD-1 [2]): 30.6 nM
B11: PMAB242 (antibody, human IgG1, kappa, V domains shown)
VH: B2 VH with T28S, T31S
VL: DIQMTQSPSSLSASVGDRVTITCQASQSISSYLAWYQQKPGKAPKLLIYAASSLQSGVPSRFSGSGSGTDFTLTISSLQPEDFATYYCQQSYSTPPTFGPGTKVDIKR

IC50 (human PD-1 [2]): 15.9 nM
B12: PMAB237 (antibody, human IgG1, kappa, V domains shown)
VH: B2 VH
VL: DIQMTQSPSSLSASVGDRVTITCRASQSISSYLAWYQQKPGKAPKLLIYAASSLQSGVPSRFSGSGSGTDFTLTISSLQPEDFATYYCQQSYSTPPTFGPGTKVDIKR

IC50 (human PD-1 [2]): 28.1 nM
B13: PMAB234 (antibody, human IgG1, kappa, V domains shown)
VH: B2 VH
VL: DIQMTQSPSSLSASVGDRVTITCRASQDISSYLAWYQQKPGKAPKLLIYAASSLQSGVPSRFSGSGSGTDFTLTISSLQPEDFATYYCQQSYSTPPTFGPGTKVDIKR

IC50 (human PD-1 [2]): 46.4 nM
B14: PMAB241 (antibody, human IgG1, kappa, V domains shown)
VH: B2 VH with T28S, T31S
VL: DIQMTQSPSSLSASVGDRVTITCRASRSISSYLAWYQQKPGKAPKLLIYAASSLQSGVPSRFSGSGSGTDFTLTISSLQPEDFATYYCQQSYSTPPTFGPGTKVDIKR

Kd (human PD-1 [1]): 985 nM
B15: PMAB276 (antibody, human IgG1, kappa, V domains shown)
VH: B2 VH with Q1E, T28S, Q52N
VL: B6 VL

IC50 (human PD-1 [2]): 40.7 nM
B16: PMAB243 (antibody, human IgG1, kappa, V domains shown)
VH: B2 VH with T28S, T31S
VL: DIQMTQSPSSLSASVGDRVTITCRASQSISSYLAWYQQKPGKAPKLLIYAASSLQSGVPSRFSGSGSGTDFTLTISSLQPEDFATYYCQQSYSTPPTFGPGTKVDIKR

Kd (human PD-1 [1]): 1790 nM
B17: PMAB274 (antibody, human IgG1, kappa, V domains shown)
VH: B2 VH with Q1E, Q52N
VL: B6 VL

Kd (human PD-1 [1]): 8050 nM
B26: PMAB214 (bispecific antibody, human IgG1, kappa)
heavy: B18 heavy
light: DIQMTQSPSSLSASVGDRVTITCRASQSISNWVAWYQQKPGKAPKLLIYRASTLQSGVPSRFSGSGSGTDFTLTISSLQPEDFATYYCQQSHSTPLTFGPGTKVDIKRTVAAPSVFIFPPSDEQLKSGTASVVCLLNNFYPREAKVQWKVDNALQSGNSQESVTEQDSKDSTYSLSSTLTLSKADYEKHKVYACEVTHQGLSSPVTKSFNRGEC

Kd (human PD-1 [1]): 1430 nM
B30: PMAB213 (bispecific antibody, human IgG1, kappa)
heavy: B18 heavy
light: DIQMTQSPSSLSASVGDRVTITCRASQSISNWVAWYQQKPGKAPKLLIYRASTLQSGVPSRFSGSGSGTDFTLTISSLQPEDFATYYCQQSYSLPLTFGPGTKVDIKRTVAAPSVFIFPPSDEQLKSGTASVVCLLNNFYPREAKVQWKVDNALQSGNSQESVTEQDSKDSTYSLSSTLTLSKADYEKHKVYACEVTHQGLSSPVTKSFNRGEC
